Assay results reported in patent US9493781B2, “Synthetic brassica-derived chloroplast transit peptides” (DOW AGROSCIENCES LLC, priority 2012, dated 2016).

What was measured:
[1] = system: Arabidopsis; assay: dgt-28, dgt-32, dgt-33, dgt-3, dgt-7 transformed Arabidopsis (T1, T2, T3) response to postemergence glyphosate, % visual injury; format: in vivo, Arabidopsis thaliana; details: T1 Arabidopsis
In short: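 Transgenic T1, T2 and T3 Arabidopsis (low-copy events for T2/T3, hemizygous and homozygous in T2) sprayed postemergence with glyphosate at 105, 420, 1,680 or 3,360 g ae/ha. Visual injury scored 2 weeks after treatment as mean, SD and range. Non-transformed Columbia served as sensitive control.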

[2] = system: Arabidopsis; assay: dgt-31, dgt-32, dgt-33 v1 transformed T1 Arabidopsis response to glyphosate, % visual injury 2 WAT; format: in vivo, Arabidopsis thaliana
Protocol: Selection of transformed plants. Freshly harvested T1 seed [dgt-31, dgt-32, and dgt-33 v1 gene] were allowed to dry at room temperature and shipped to Indianapolis for testing. T1 seed was sown in 26.5×51-cm germination trays (T.O. Plastics Inc., Clearwater, Minn.), each receiving a 200 mg aliquots of stratified T1 seed (˜10,000 seed) that had previously been suspended in 40 mL of 0.1% agarose solution and stored at 4° C. for 2 days to complete dormancy requirements and ensure synchronous seed germination.
Sunshine Mix LP5 (Sun Gro Horticulture Inc., Bellevue, Wash.) was covered with fine vermiculite and subirrigated with Hoagland's solution until wet, then allowed to gravity drain. Each 40 mL aliquot of stratified seed was sown evenly onto the vermiculite with a pipette and covered with humidity domes (KORD™ Products, Bramalea, Ontario, Canada) for 4-5 days. Domes were removed once plants had germinated prior to initial transformant selection using glufosinate postemergence spray (selecting for the co-transformed dsm-2 gene).
Six days after planting (DAP) and again 10 DAP, T1 plants (cotyledon and 2-4-lf stage, respectively) were sprayed with a 0.1% solution of IGNITE™ herbicide (280 g ai/L glufosinate, Bayer Crop Sciences, Kansas City, Mo.) at a spray volume of 10 mL/tray (703 L/ha) using a DeVilbiss™ compressed air spray tip to deliver an effective rate of 200 g ae/ha glufosinate per application. Survivors (plants actively growing) were identified 4-7 days after the final spraying. Surviving plants were transplanted individually into 3-inch pots prepared with potting media (Metro Mix 360™). Plants reared in the greenhouse at least 1 day prior to tissue sampling for copy number analyses.
T1 plants were sampled and copy number analysis for the dgt-31, dgt-32, and dgt-33 v1 gene were completed. T1 plants were then assigned to various rates of glyphosate so that a range of copies were among each rate. For Arabidopsis, 26.25 g ae/ha glyphosate is an effective dose to distinguish sensitive plants from ones with meaningful levels of resistance. Elevated rates were applied to determine relative levels of resistance (105, 420, 1680, or 3360 g ae/ha).
All glyphosate herbicide applications were made by track sprayer in a 187 L/ha spray volume. Glyphosate used was of the commercial Durango dimethylamine salt formulation (480 g ae/L, Dow AgroSciences, LLC).
T1 plants selected above were subsequently transplanted to individual pots and sprayed with various rates of commercial glyphosate. Table 16 compares the response of dgt-31, dgt-32, and dgt-33 v1 and control genes to impart glyphosate resistance to Arabidopsis T1 transformants. Response is presented in terms of % visual injury 2 WAT. […] An arithmetic mean and standard deviation is presented for each treatment. […]

[3] = system: chloroplasts of tobacco cells; assay: Tobacco transient assay: confocal microscopy of TraP-YFP localization; format: cell-based, Nicotiana benthamiana; details: Agrobacterium-infiltrated tobacco leaves
Source text: The Trap8 and TraP9 chimeric chloroplast transit peptide sequences were initially tested via a transient in planta assay. Polynucleotide sequences which encode the Trap8 (SEQ ID NO:5) and TraP9 (SEQ ID NO:6) chimeric chloroplast transit peptide sequences were synthesized. A linker sequence (SEQ ID NO:7) was incorporated between the TraP sequence and the yfp coding sequence. The resulting constructs contained two plant transcription units (PTU). The first PTU was comprised of the Arabidopsis thaliana Ubiquitin 10 promoter (AtUbi10 promoter; Callis, et al., (1990) J. Biol. Chem., 265: 12486-12493), TraP-yellow fluorescent protein fusion gene (TraP-YFP; US Patent App. 2007/0298412), and Agrobacterium tumefaciens ORF 23 3′ untranslated region (AtuORF23 3′UTR; U.S. Pat. No. 5,428,147). […]
Agrobacterium-infiltrated tobacco leaves were severed from the plant, and placed into a petri-dish with water to prevent dehydration. The infiltrated tobacco leaves were observed under blue light excitation with long-pass filter glasses held in place using a Dark Reader Hand Lamp™ (Clare Chemical Research Co.; Dolores, Colo.) to identify undamaged areas of the leaf that were successfully expressing the YFP reporter proteins. […]

[4] = system: YFP protein; assay: Western blot of infiltrated tobacco leaves (YFP expression, transit peptide processing); design: species or system Nicotiana benthamiana; details: infiltrated tobacco leaf tissue
Protocol: Samples of the infiltrated tobacco plants were assayed via Western blotting. Leaf punches were collected and subjected to bead-milling. About 100-200 mg of leaf material was mixed with 2 BBs (steel balls) (Daisy; Rogers, Ark.) and […] of PBST for 3 minutes in a Kleco™ bead mill. The samples were then spun down in a centrifuge at 14,000×g at 4° C. The supernatant was removed and either analyzed directly via Western blot or immunoprecipitated. The immunoprecipitations were performed using the Pierce Direct IP Kit™ (Thermo Scientific; Rockford, Ill.) following the manufacturer's protocol. Approximately, 50 μg of anti-YFP was bound to the resin. The samples were incubated with the resin overnight at 4° C. Next, the samples were washed and eluted the following morning and prepped for analysis by combining equal volumes of 2×8M Urea sample buffer and then boiling the samples for 5 minutes. The boiled samples were run on a 4-12% SDS-Bis Tris gel in MOPS buffer for 40 minutes. The gel was then blotted using the Invitrogen iBlot™ (Life Technologies; Carlsbad, Calif.) following the manufacturer's protocol. The blotted membrane was blocked for 10 minutes using 5% non-fat dry milk in PBS-Tween solution. The membrane was probed with the primary antibody (monoclonal anti-GFP in rabbit) used at a 1:1000 dilution in the 5% non-fat dry milk in PBS-Tween solution for 1 hour. […]

[5] = with TraP8 and with TraP14 / TraP24 respectively

Molecule	Glyphosate tolerance [1]	Herbicide tolerance [2, 5]	other results
DGT-32: Streptomyces EPSP synthase enzyme (GENBANK ZP_04696613) (protein, listed as Streptomyces roseosporus) MTVIEIPGSKSVTARALFLAAAADGTTTLLRPLRSDDTEGFAEGLRNLGYAVEQEADRWRVQGRPAGPAATEADVYCRDGATTARFLPTLAAAAASGTYRFDASAQMRRRPLAPLTRALTALGVDLRHEGADGHHPLTVRAAGIEGGELTLDAGESSQYLTALLMLGPLTTKGLRIEVTELVSAPYVEITLAMMRDFGVEVEREGNTFTVPSPSSRLRSNRGGPIGGYRATTYAVEPDASTASYFFAAAALTGREVTVPGLGTGALQGDLRFVDVLREMGAEVSVGPDATTVRSTGRLRGITVNMRDISDTMPTLAAIAPYADGPVVIEDVANTRVKECDRLEACAENLRAMGITVHTGPDRIEIHPGTPKPTGIATHGDHRIVMSFAVAGLRTPGLTYDDPGCVRKTFPRFHEVFADFAHDLEGR	significant tolerance to glyphosate	robust tolerance to glyphosate	
TraP9: chimeric chloroplast transit peptide SEQ ID NO:4; N-terminus from Brassica rapa EPSPS CTP, C-terminus from Brassica napus (protein, TraP9 chimeric chloroplast transit peptide, N-terminus from Brassica rapa EPSPS CTP, C-terminus from Brassica napus) MAQASRICQNPCVISNLPKSNHRKSPFSVSLKTHQPRASSWGLKKSGTMLNGSVIRPVKVTASVS			Localization of YFP fluorescence in tobacco leaf cells [3]: accumulated within the chloroplasts; Processing (cleavage) of transit peptide from YFP by Western blot [4]: processed
DGT-33: Streptomyces EPSP synthase enzyme (GENBANK NC_010572) (protein, listed as Streptomyces griseus) MGAVTVIDIPGSKSVTARALFLAAAADGTTTLLRPLRSDDTEGFAEGLKNLGYAVEQEADRWRVEGRPDGPAAPDADVYCRDGATTARFLPTLVAAAASGTYRFDASAQMRRRPLAPLTRALTALGVDLRHGGEEGHHPLTVRAAGIEGGDVVLDAGESSQYLTALLMLGPLTAKGLRIEVTDLVSAPYVEITLAMMRDFGVDVSREGNTFTVPSGGYRATAYAVEPDASTASYFFAAAALTGREVTVPGLGIGALQGDLRFVDVLRDMGAEVSVGPDATTVRSTGRLRGITVTMRDISDTMPTLAAIAPHADGPVRIEDVANTRVKECDRLEACAQNLRAMGITVHTGHDWIEILPGTPKPTGIATHGDHRIVMSFAVAGLLTPGLTYDDPGCVRKTFPRFHEVFADFAASPQA	significant tolerance to glyphosate	robust tolerance to glyphosate	
DGT-31 (v1): Streptomyces EPSP synthase enzyme (GENBANK YP_004922608.1) (protein, DGT-31 v3 nucleotide) MTVIDIPGSKSVTARALFLAAAADGTTTLLRPLHSDDTEGFTEGLTRLGYAVVREPDRWHIEGRPSGPAAADAEVHCRDGATTARFLPTLAAAAASGTYRFDASAQMRRRPLAPLTEALRTLGVDLRHDGAEGHHPLTIQASGVKGGGLTLDAGESSQYLTALLMLGPLTAEGLRIEVTELVSAPYVEITLAMMRGFGVEVVREGNTFTVPPGGYRATTYAIEPDASTASYFFAAAALTGREVTVPGLGTGALQGDLRFTEVLRRMDADVRTTSDSTTVRSDGRLAGLTVNMRDISDTMPTLAAIAPYASSPVRIEDVANTRVKECDRLEACAQNLRSMGITVRTGPDWIEIHPGTPRPTEIATHGDHRIVMSFAVAGLRTPGMSYDDPGCVRKTFPRFHEEFAAFVERSSAGE			Herbicide tolerance ([2]; with transit peptide TraP8): improved tolerance; Herbicide tolerance ([2]; with transit peptide TraP23, compared to the negative control): slight herbicide tolerance
